Data published in patent publication US20060121042A1 (AstraZeneca / MedImmune, published 2006).

T1: r murine EphA3 (mouse, UniProt P29319)
T1 construct: recombinant Fc fusion (R&D Systems); also called rmuEphA3-Fc; mEphA3
T1 sequence (receptor-Fc fusion, looked up): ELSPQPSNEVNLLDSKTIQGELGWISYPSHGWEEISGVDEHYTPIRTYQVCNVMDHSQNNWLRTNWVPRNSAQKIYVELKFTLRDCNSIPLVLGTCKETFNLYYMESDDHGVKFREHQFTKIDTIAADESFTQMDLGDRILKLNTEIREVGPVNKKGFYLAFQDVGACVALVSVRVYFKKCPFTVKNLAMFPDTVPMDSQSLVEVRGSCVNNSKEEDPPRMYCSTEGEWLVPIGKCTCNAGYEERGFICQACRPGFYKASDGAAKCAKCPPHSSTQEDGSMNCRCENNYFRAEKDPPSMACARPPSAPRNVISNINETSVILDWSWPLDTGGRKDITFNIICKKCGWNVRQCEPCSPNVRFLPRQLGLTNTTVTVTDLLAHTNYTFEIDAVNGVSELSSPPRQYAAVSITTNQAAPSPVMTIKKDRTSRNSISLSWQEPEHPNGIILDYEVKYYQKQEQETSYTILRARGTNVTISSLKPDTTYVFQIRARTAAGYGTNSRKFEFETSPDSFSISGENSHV

T2: r murine EphA7 (mouse, UniProt Q61772)
T2 construct: recombinant Fc fusion (R&D Systems); also called rmuEphA7-Fc; mEphA7
T2 sequence (receptor-Fc fusion, looked up): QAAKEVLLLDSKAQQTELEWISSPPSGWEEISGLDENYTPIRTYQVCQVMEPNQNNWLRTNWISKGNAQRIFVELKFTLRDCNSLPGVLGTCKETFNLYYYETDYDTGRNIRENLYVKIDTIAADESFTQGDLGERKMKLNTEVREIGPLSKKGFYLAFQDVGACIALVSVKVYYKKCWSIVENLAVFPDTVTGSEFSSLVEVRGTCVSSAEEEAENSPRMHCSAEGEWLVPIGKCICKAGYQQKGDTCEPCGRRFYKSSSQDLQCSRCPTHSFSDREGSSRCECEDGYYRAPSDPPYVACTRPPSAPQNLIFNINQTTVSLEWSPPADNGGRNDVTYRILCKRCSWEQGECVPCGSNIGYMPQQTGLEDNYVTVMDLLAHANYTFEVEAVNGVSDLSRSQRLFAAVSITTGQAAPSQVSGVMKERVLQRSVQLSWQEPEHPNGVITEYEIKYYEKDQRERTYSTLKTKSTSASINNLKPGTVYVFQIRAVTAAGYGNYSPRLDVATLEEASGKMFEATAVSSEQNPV

T3: mEphA7 (mouse, UniProt Q61772)
T3 construct: part of an Fc fusion; also called rmuEphA7-Fc
T3 sequence (receptor-Fc fusion, looked up): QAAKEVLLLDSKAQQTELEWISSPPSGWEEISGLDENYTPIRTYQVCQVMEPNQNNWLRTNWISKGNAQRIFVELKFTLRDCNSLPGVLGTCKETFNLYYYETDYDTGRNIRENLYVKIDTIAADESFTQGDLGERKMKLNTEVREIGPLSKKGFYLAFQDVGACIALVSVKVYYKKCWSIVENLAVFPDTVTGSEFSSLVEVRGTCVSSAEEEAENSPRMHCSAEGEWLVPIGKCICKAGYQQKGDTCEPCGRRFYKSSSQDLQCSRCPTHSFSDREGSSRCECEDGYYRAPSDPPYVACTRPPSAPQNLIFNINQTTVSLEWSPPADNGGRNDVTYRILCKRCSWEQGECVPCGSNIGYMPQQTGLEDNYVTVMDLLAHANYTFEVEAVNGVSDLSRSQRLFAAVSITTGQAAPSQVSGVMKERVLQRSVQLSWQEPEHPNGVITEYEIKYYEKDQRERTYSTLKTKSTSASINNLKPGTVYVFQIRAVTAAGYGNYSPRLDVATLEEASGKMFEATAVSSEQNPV

T4: mEphA3 (mouse, UniProt P29319)
T4 construct: part of an Fc fusion; also called rmuEphA3-Fc
T4 sequence (receptor-Fc fusion, looked up): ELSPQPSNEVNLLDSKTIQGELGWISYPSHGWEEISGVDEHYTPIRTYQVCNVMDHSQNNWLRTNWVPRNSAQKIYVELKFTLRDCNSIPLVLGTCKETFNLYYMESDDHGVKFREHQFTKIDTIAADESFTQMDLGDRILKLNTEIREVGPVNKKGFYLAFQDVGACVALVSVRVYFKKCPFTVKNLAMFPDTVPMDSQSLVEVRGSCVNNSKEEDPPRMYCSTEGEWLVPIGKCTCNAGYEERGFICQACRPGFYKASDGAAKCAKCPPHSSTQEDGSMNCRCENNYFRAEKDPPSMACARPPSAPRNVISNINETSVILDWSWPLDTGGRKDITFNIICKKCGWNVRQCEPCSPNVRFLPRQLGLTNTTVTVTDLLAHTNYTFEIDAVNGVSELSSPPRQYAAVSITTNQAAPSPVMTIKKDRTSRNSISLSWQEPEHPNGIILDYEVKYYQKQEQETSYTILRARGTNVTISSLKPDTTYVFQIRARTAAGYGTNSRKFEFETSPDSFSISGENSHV


What was measured:
r murine EphA4 = target: T5, r murine EphA4 (mouse, UniProt Q03137); assay: activity ELISA, IgG on coated antigen
T5 construct: recombinant Fc fusion (R&D Systems); also called rmuEphA4-Fc; mEphA4
Experimental: (§1) Secondary screening of IgG constructs of affinity optimized combinatorial variants with additional EphA receptors: With purified IgG constructs of the nine combinatorial variants, additional secondary screening assays were performed using the Activity ELISA (see above) and recombinant EphA receptor proteins. More precisely, Nunc Maxisorp plates were coated with the following rEphA proteins: rhuEphAl-Fc; 0.5 μg/well, rmuEphA2-Fc; 0.5 μg/well, rmuEphA3-Fc: 0.1 μg/well, rmuEphA4-Fc; 0.1 μg/well, rratEphA5-Fc; 0.5 μg/well, rmuEphA6-Fc; 0.5 μg/well, rmuEphA7-Fc; 0.1 μg/well, rEphA8; 0.2 μg/well (all R&D Systems), rhuEphA2-Fc; 0.5 μg/well, and rhuEphA4-His; 0.1 μg/well (both produced at MedImmune, Inc.). Plates were blocked with 3% BSA+0.1% Tween20 for 2 h. […] Incubation with a goat anti-human kappa horseradish peroxydase (HRP) conjugate then followed. HRP activity was detected with TMB substrate and the reaction quenched with 0.2 M H₂SO₄. Plates were read at 450 nm. Data was analyzed by normalizing Fab concentrations to the corresponding activity data (see FIGS. 12A-12J and 14).

r murine EphA3 = target: T1, r murine EphA3; assay: activity ELISA, IgG on coated antigen
Experimental: as §1

r murine EphA7 = target: T2, r murine EphA7; assay: activity ELISA, IgG on coated antigen
Experimental: as §1

[1] = target: T6, Human EphA4-Fc fusion protein (human, UniProt P54764 20-547); assay: BIAcore, IgG immobilized on the sensor chip, EphA4-Fc as analyte
T6 construct: not shown: Fc portion of a human IgG1
Experimental: (§2) FIG. 15A-15B. […] Binding affinities were measured using the BIAcore assay. […] Variant kinetic measurements for human EphA4 and were obtained using BIAcore with immobilized variant antibodies and human EphA4-Fc and EphA4-His as analytes.

mEphA7 = target: T3, mEphA7; assay: ELISA, receptor coated on the plate, purified IgG, anti-human kappa-HRP
Experimental: as §1

mEphA3 = target: T4, mEphA3; assay: as above
Experimental: as §1

mEphA4 = target: T7, mEphA4 (mouse, UniProt Q03137); assay: as above
T7 construct: part of an Fc fusion; also called rmuEphA4-Fc
Experimental: as §1

[2] = target: T8, Human EphA4-His fusion protein (human, UniProt P54764 20-547); assay: BIAcore, IgG immobilized on the sensor chip, EphA4-his as analyte
T8 construct: also called rhuEphA4-His; not shown: Histidine tag
Experimental: as §2

[3] = target: T6, Human EphA4-Fc fusion protein; assay: BIAcore, IgG immobilized on the sensor chip, EphA4-Fc as analyte; comment on the sheet: marginal kinetic fit
Experimental: as §2

[4] = target: T8, Human EphA4-His fusion protein; assay: BIAcore, IgG immobilized on the sensor chip, EphA4-his as analyte; comment on the sheet: marginal fit
Experimental: as §2

T6 sequence (P54764 20-547): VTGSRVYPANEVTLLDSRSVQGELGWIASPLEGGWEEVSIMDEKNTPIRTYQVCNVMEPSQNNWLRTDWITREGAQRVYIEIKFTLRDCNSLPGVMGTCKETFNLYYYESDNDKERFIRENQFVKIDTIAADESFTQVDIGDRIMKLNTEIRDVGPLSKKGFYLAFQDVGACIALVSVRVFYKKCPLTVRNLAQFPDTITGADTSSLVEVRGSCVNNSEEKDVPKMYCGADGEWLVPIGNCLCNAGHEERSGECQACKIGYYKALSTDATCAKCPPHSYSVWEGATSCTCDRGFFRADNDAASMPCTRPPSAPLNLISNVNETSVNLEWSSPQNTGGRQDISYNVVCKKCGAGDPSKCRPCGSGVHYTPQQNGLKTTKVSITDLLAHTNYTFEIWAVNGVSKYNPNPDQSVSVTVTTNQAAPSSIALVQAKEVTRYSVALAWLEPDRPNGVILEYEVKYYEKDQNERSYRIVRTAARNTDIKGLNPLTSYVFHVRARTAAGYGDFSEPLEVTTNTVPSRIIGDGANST
T8 sequence (P54764 20-547): as above
T7 sequence (Q03137 20-547 limits assumed): as the sequence (P54764 20-547) above, with P59A, N121S, V124G, R250Q, S251N, T270S, K378R, N406S counted along it
T5 sequence (Q03137 20-547 limits assumed): as the sequence (P54764 20-547) above, with P59A, N121S, V124G, R250Q, S251N, T270S, K378R, N406S counted along it

Row | Binder | binding result (r murine EphA4) | binding result (r murine EphA3) | binding result (r murine EphA7) | Kd [1] | koff [1] | kon [1] | binding result (mEphA7) | binding result (mEphA3) | binding result (mEphA4) | Kd [2] | koff [2] | kon [2] | Kd [3] | koff [3] | kon [3] | Kd [4] | koff [4] | kon [4]
1 | 1G11 IgG1 (affinity optimized combinatorial variant of mAb GEA44 in human IgG1 format) (antibody, V domains shown) VH: QVQLLQSGAEVKKPGASVKVPCKASGYTFTSRAMSWVRQAPGQGLEWMGWINTNTGNPTYAQGFTGRFVFSLDTSVSTAYLQISSLKAEDTAVYYCARVRFTVYGDGMDVWGQGTLVTVSS VL: EIVLTQSPATLSVSPGERATLSCRASQSVSSNLPWYQQKPGQAPRLLIYGASTRPTGIPDRFSASGSGTDFTLTISRVEPEDFAVYYCQQYGPSWTFGQGTKVEIK | binds | binds | binds | 59 pM | 1.01e-05 s⁻¹ | 172000 M⁻¹ s⁻¹ | binds | binds | binds | – | – | – | – | – | – | – | – | –
2 | 1A4 IgG1 (affinity optimized combinatorial variant of mAb GEA44 in human IgG1 format) (antibody, V domains shown) VH: QVQLLQSGAEVKKPGASVKVPCKASGYTFTSRAMSWVRQAPGQGLEWMGWINTNTGNPTYAQGSTGRFVFSLDTSVSTAYLQISSLKAEDTAVYYCARVRFTVYGDGMDVWGQGTLVTVSS VL: EIVLTQSPATLSVSPGERATLSCRASQSVSSNPAWYQQKPGQAPRLLIYGASTRATGIPDRFSASGSGTDFTLTISRVEPEDFAVYYCQQYGPSWTFGQGTKVEIK | binds | binds | binds | 37 pM | 2.87e-05 s⁻¹ | 769000 M⁻¹ s⁻¹ | binds | binds | binds | 800 pM | 0.000345 s⁻¹ | 431000 M⁻¹ s⁻¹ | – | – | – | – | – | –
3 | 1B10 IgG1 (affinity optimized combinatorial variant of mAb GEA44 in human IgG1 format) (antibody, V domains shown) VH: QVQLLQSGAEVKKPGASVKVPCKASGYTFTSRAMSWVRQAPGQGLEWMGWINTNTGNPTYAQGFTGRFVFSLDTSVSTAYLQISSLKAEDTAVYYCARVRFTVYGDGMDVWGQGTLVTVSS VL: EIVLTQSPATLSVSPGERATLSCRASQSVSSNPAWYQQKPGQAPRLLIYGASTWATGIPDRFSASGSGTDFTLTISRVEPEDFAVYYCQQYGPSWTFGQGTKVEIK | binds | – | binds | – | – | – | binds | – | binds | – | – | – | 23 pM | 5.41e-05 s⁻¹ | 2.33e+06 M⁻¹ s⁻¹ | 1000 pM | 0.000602 s⁻¹ | 600000 M⁻¹ s⁻¹
